This data set deals with the molecule itself. Kind of data set: SEC; size exclusion chromatography of purified full-length citrin and of the calcium-binding site mutant; column and buffer not told. In general terms: In gel filtration, larger molecules generally elute earlier.

Where a chain is given by its changes, count along the chain named. Names may count otherwise.

For orientation: stoichiometry N means a count of units in the complex or per binding partner.

B1: human citrin (mitochondrial aspartate/glutamate carrier isoform 2), full-length wild type (natural protein, UniProt Q9UJS0-1 1-675, looked up)
chain: MAAAKVALTKRADPAELRTIFLKYASIEKNGEFFMSPNDFVTRYLNIFGESQPNPKTVELLSGVVDQTKDGLISFQEFVAFESVLCAPDALFMVAFQLFDKAGKGEVTFEDVKQVFGQTTIHQHIPFNWDSEFVQLHFGKERKRHLTYAEFTQFLLEIQLEHAKQAFVQRDNARTGRVTAIDFRDIMVTIRPHVLTPFVEECLVAAAGGTTSHQVSFSYFNGFNSLLNNMELIRKIYSTLAGTRKDVEVTKEEFVLAAQKFGQVTPMEVDILFQLADLYEPRGRMTLADIERIAPLEEGTLPFNLAEAQRQKASGDSARPVLLQVAESAYRFGLGSVAGAVGATAVYPIDLVKTRMQNQRSTGSFVGELMYKNSFDCFKKVLRYEGFFGLYRGLLPQLLGVAPEKAIKLTVNDFVRDKFMHKDGSVPLAAEILAGGCAGGSQVIFTNPLEIVKIRLQVAGEITTGPRVSALSVVRDLGFFGIYKGAKACFLRDIPFSAIYFPCYAHVKASFANEDGQVSPGSLLLAGAIAGMPAASLVTPADVIKTRLQVAARAGQTTYSGVIDCFRKILREEGPKALWKGAGARVFRSSPQFGVTLLTYELLQRWFYIDFGGVKPMGSEPVPKSRINLPAPNPDHVGGYKLAVATFAGIENKFGLYLPLFKPSVSTSKAIGGGP
notes: human citrin (AGC2), full length, codon-optimised cDNA; UniProt Q9UJS0, isoform NP_055066.1; The tag is followed by a TEV site (ENLYFQG); the protein was released from the resin by TEV digestion; NP_055066.1 is printed for the mammalian construct; the yeast construct is called a codon-optimised cDNA of human citrin; also called AGC2; wild-type citrin; source: S. cerevisiae W303-1B, mitochondria …
Consider B1, for which the “stoichiometry N” value came to 2.

B2: human citrin D66A/T68A/D70A/E77A, full-length calcium-binding site mutant (natural protein, UniProt Q9UJS0-1 1-675, looked up)
chain: B1 chain with D66A, T68A, D70A, E77A
notes: Same construct as m1 apart from the four substitutions; also called quadruple alanine mutant; quadruple mutant; source: S. cerevisiae W303-1B, mitochondria solubilised in LMNG, purified (nickel Sepharose, on-column TEV digestion); not shown: His8, N-terminal, cleaved
As for B2, the “stoichiometry N” value was determined as 2.
